Drawing on patent US20050282743A1, “Molecular interactions in cells” (Arbor Vita Corporation, priority 2001, published 2005), this text covers Classification and Kd for 7 molecules.

Usually Kd stands for the constant that tells how readily two partners part at equilibrium. Low readings indicate higher affinity, high ones lower affinity.

Assay [1] has as its target T1, GST-KIAA0751(L) PDZ domain 1 (Mus musculus (Mouse)), Q9EQZ7.
T1 chain: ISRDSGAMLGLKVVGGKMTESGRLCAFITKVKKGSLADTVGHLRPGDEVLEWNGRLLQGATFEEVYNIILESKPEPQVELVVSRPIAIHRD
The assay can be described thus: G' assay. Note: key of the grades not given here.

Assay [2] concerns the target T2, GST-PSD95 PDZ domain 2 (Homo sapiens).
T2 chain: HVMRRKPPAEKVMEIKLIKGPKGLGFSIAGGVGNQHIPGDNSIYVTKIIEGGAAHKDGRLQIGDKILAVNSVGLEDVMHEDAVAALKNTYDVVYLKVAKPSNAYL
The assay can be described thus: G' assay. Note: key of the grades not given here.

Assay [3] deals with T3, GST-FLJ 10324 PDZ domain 1 [GST: P08515].
T3 chain: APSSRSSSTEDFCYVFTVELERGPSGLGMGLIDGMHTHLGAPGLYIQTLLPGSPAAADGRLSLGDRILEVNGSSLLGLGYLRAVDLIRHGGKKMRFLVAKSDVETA
The assay can be described thus: G assay titration, PDZ 1 ug/ml.

For assay [4], the target named is T4, GST-rat SHANK 3 PDZ domain 1 (rat), Q9JLU4.
T4 chain: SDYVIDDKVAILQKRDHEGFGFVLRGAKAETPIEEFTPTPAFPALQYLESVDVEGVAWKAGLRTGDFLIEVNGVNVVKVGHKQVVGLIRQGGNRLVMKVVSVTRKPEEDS
The assay can be described thus: G' assay. Note: key of the grades not given here.

The target of assay [5] is T5, GST-LIM Protein PDZ domain 1 (Homo sapiens (Human)), Q96HC4.
T5 chain: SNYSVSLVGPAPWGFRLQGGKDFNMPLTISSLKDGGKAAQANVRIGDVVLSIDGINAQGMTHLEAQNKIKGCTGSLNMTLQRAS
As to the kind of experiment: G assay titration, PDZ 1 ug/ml.

Assay [6] addresses GST-KIAA1634 PDZ domain 5 (Homo sapiens (Human)), Q5TCQ9. The assay can be described thus: G assay titration, PDZ 1 ug/ml.
Assay [7] deals with T6, GST-KIAA1719 PDZ domain 6 (Homo sapiens (Human)), Q9C0E4.
T6 chain: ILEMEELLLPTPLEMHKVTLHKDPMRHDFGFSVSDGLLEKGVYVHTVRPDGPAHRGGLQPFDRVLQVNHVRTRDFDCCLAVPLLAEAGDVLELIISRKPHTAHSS
As to the kind of experiment: G' assay. Note: key of the grades not given here.

For assay [8], the target named is T7, GST-AF6 PDZ domain 1 (Homo sapiens (Human)), P55196.
T7 chain: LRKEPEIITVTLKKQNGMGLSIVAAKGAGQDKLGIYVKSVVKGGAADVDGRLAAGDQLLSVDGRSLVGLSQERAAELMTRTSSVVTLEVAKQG
The assay can be described thus: G' assay. Note: key of the grades not given here.

Assay [9] concerns the target T8, GST-DLG1 PDZ domain 2 (Homo sapiens), Q12959.
T8 chain: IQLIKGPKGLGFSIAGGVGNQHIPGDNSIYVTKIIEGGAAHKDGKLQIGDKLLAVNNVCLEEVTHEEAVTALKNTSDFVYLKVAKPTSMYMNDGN
As to the kind of experiment: G assay titration, PDZ 0.3 ug/ml.

The target of assay [10] is T9, GST-SYNTENIN PDZ domain 2 (Homo sapiens (Human)), O00560.
T9 chain: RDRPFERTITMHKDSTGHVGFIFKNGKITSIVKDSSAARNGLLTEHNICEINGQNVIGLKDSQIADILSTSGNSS
The assay can be described thus: G' assay. Note: key of the grades not given here.

For assay [11], the target named is T10, GST-MUPP1 PDZ domain 4 (Homo sapiens (Human)), O75970.
T10 chain: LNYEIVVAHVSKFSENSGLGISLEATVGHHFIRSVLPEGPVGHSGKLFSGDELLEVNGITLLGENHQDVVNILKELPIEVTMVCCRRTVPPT
As to the kind of experiment: G' assay.

Assay [12] deals with T11, GST-SIP1 PDZ domain 2 (Homo sapiens (Human)), Q15599.
T11 chain: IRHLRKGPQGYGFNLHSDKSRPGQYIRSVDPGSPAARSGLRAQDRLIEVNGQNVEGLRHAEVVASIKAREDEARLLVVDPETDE
As to the kind of experiment: G' assay.

In assay [13] the target is T12, GST-AIPC PDZ domain 3 (Homo sapiens (Human)), O15018.
T12 chain: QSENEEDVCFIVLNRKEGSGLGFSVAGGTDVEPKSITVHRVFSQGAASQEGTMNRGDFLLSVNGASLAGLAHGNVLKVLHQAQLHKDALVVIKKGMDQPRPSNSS
The assay can be described thus: G' assay.

In assay [14] the target is T13, GST-KIAA1719 PDZ domain 1 (Homo sapiens (Human)), Q9C0E4.
T13 chain: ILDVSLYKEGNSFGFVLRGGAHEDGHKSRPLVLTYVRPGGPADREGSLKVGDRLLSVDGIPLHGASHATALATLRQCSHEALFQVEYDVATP
As to the kind of experiment: G' assay.

The target of assay [15] is T14, GST-PDZK1 PDZ domain 3 (Homo sapiens (Human)), A8MUH7.
T14 chain: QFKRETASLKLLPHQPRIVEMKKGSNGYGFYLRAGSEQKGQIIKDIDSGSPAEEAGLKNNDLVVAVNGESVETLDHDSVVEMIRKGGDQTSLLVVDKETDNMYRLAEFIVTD
The assay can be described thus: G' assay.

Assay [16] concerns the target T15, GST-AIPC PDZ domain 4 (Homo sapiens (Human)), O15018.
T15 chain: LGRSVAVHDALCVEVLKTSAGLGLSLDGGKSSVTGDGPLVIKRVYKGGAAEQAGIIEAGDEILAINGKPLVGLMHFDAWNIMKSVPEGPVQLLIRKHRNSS
The assay can be described thus: G' assay.

Assay [17] has as its target T16, GST-KIAA1719 PDZ domain 5 (Homo sapiens (Human)), Q9C0E4.
T16 chain: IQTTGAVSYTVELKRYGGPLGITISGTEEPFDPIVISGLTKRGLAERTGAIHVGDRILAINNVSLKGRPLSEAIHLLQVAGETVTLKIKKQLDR
The assay can be described thus: G' assay.

The target in assay [18] is T17, GST-prIL16 PDZ domains 1, 2, Q14005.
T17 chain: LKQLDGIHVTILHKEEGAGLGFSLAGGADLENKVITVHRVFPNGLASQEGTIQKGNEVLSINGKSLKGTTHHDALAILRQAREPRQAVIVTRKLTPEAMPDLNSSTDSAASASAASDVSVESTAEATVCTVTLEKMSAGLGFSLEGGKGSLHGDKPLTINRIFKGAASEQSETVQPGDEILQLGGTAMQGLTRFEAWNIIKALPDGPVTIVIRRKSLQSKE
The assay can be described thus: G' assay.

Chain of GST-KIAA1634 PDZ domain 5 (Homo sapiens (Human)), Q5TCQ9 (Q5TCQ9 other isoform, or with tags, fused parts or gaps): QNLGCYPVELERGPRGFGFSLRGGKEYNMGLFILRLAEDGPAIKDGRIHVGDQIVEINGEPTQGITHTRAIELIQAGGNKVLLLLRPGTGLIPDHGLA

The molecule HDFRRAFKKILARGDRKRIV (modifications not checked) [alpha-2A Adrenergic receptor] showed a Classification in assay [1] of 3 A450 class.
Molecule QISPGGLEPPSEKHFRETEV (modifications not checked) [TAX] had a Classification in assay [2] of 1 A450 class.
In assay [3], KTMPAAMYRLLTAQEQPVYI (modifications not checked) [MINT-1] showed a Kd of 1000 nM.
As to VPGALDYAAFSSALYGESDL (modifications not checked) [a-actinin 2], the Classification in assay [4] came out at 1 A450 class. Also, the Kd in assay [5] and in [6] was 2000 nM each time.
For the molecule ELLQFCRTPNPALKNGQYWV (modifications not checked) [CSPG4 (chondroitin sulfae proteoglycan 4, melanoma-associated)], the Classification in assay [7] and in assay [8] was 5 A450 class each time.
In [9], VGTLLLERVIFPSVKIATLV (modifications not checked) [AdenoE4 typ9] registered a Kd of 30 nM. In other words, the double-digit nanomolar range.
Take ILNSIQVMRAQMNQIQSVEV (modifications not checked) [ephrin B2]: the Classification in assay [10] was 2 A450 class; in [11], 1 A450 class; in [12], 2 A450 class; in [13], 1 A450 class; in assay [14], 1 A450 class; in assay [15], 1 A450 class. Besides, the values for the Classification in assay [16], in assay [17] and in assay [18] were 1 A450 class, 4 A450 class and 2 A450 class, respectively.
